Source: patent publication US20250154237A1 (A AND G PHARMACEUTICAL, published 2025)

T1: human recombinant his-tagged full-length progranulin (human, UniProt P28799 18-593)
T1 construct: mature; also called huPGRN; hu PGRN; not shown: his tag
T1 sequence (looked up): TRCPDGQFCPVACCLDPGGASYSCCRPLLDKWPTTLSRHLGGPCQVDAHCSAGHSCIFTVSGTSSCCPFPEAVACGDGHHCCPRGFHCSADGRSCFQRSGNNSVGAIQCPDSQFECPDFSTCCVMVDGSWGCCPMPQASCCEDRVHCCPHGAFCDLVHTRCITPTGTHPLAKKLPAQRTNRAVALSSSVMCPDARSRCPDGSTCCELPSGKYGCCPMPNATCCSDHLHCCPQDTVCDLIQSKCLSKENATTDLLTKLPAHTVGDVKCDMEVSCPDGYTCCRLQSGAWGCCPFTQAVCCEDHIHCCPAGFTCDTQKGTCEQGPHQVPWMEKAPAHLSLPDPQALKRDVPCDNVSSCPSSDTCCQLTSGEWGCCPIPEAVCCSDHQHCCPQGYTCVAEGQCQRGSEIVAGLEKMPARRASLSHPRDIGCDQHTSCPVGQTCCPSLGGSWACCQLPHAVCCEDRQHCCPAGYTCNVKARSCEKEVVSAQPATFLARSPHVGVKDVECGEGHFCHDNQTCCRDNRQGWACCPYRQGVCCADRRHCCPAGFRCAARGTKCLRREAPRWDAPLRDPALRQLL

B1: 10B3 (antibody, V domains shown)
VH: QVQLVESGGGVVQPGRSLRLSCAASGFTLSGYGMHWVRQAPDKGLEWVAVIWYDGSDKNYADSVKGRFTISRDNSKNTLYLQMNSLRAEDTAVYYCARDRGAVAGDYWGQGTLVTVSS
VL: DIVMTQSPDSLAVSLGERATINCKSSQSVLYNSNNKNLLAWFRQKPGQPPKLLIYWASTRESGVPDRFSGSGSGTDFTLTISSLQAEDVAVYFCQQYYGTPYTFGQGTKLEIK
notes: Fully human mAb from TC-mAb mouse hybridoma; also called mAb 10B3
B2: 10C8 (antibody, V domains shown)
VH: QVQLVQSGAEVKKPGASVKVSCKASGYTLTSYGISWVRQAPGQGLEWMGWISAYNGNTNYAQKLQGRVTMTTDTSTSTAYMELRSLRSDDTAVYYCARELLWFGELLSQYYYYGMDVWGQGTTVTVSS
VL: DIQMTQSPSTLSASVGDRVTITCRASQNISRWLAWYQQKPGKAPKLLIFRASSLETGVPSRFGGSGSGTEFTLTISSLQPDDFATYYCQQYNSYYTFGQGTRLEIK
notes: Fully human mAb from TC-mAb mouse hybridoma; also called mAb 10C8
B3: 14A6 (antibody, V domains shown)
VH: QVQLVESGGGVVQPGRSLRLSCAASGFTFSNYGMHWVRQAPGKGLEWVAVIWYDGSNKYYADSVKGRFTISRDNSKNTLYLQMNSLRAEDTAVYYCARGHSVSGGDYWGQGTLVTVSS
VL: DIQMTQSPSSLSASVGDRVTITCRASQSVNSFLNWYQQTPGKAPKLLIYAASSLQSGVPPRFSGSGSGTDFTLTISSLQPEDFATYYCQQSYSTPYTFGQGTKLEIN
notes: Fully human mAb from TC-mAb mouse hybridoma; also called mAb 14A6
B4: 16C11 (antibody, V domains shown)
VH: QVQLVESGGGVVQPGRSLRLSCAASGFTFSSYAMHWVRQAPGKGLEWVAVIWYDGSKKYNADSVKGRFTISRDNSKNTLYLQMNSLRAEDTAVYYCARDRGIGGDYWGQGTLVTVSS
VL: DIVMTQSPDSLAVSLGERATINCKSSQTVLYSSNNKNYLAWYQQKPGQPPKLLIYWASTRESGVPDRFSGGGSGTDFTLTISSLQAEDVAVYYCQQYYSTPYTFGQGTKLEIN
notes: Fully human mAb from TC-mAb mouse hybridoma; also called mAb 16C11

Columns and labels:
[1] = molecular target: T1, human recombinant his-tagged …; experiment: BLI OctetRed96, mAb captured on AHC sensors, huPGRN as analyte, 25 C; design: Response: unit not given here
Description: Determination of Binding Affinity by Octet. OctetRed96 BLI technology was used to examine the binding characteristics of selected fully human antibodies to progranulin. The method is briefly described herein. Assays were performed at 25° C. Pre-conditioning of the pre hydrated (1 hr) anti-human Fc capture (AHC) sensors was performed by repeating 3 cycles of dipping sensors in regeneration buffer followed by neutralizing buffer (PBS). Anti-progranulin mAbs were captured at 20 μg/ml for 360 seconds on pre-conditioned biosensors. Sensors were then dipped in baseline buffer similar to the progranulin diluent (PBS). Sensors were then dipped into progranulin-containing wells as indicated for 420 seconds. The dissociation step was carried out in assay buffer (PBS) for 600 seconds. The KD was determined based on Kₒₙ and Koff using the experimental conditions described above.

[2] = molecular target: T1, human recombinant his-tagged …; experiment: flow cytometry: progranulin binding to MDA-MB-231 cells with the antibody, % of hIgG control
Description: Progranulin Binding by Flow Cytometry. Binding assays were carried out on an […] Flow Cytometer using the instructions included therein. […] Out of the 45 mAbs assayed, 11 clones (shown in bold in Table 5) produced antibodies that were able to inhibit progranulin binding in a dose dependent fashion.

| Binder | Kd [1] [pM] | Response [1] | koff [1] [s⁻¹] | kon [1] [M⁻¹ s⁻¹] | % Control [2] [%] |
| --- | --- | --- | --- | --- | --- |
| B1 | 136 | 0.797 | 1.19e-05 | 86800 | 62 |
| B2 | 4.13 | 0.89 | 5.38e-07 | 130000 | 55 |
| B3 | 587 | 0.64 | 2.95e-05 | 50300 | 116 |
| B4 | 476 | 0.932 | 7.21e-05 | 152000 | 60 |
